Assay results: patent US20230250167A1 (published 2023)
Changes are numbered by the printed parent chain. “And” between values parts separate entries of the source, which are not always exact repeats. Identical values can stand only once.

B1: ILT70100 (antibody, V domains shown)
VH: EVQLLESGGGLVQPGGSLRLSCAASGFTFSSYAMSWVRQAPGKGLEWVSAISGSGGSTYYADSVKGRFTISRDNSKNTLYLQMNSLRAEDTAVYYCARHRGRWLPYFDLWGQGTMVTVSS
VL: DIQLTQSPSSLSASVGERVTITCQASQDIRSYLNWYQQKPGKAPKLLIYDVSNLETGVPSRFSGSGSGTEYTFSISSLQPEDFATYYCQQYDKAPLTFGGGTKVEIK
B2: ILT70052 (antibody, V domains shown)
VH: EVQLVESGGGLVKPGGSLRLSCEASGFTFTDYYMNWIRQAPGKGLEWISYISPGGTTVYYADSVKGRFTISRDNAKNSLYLQMNSLRVEDTAVYYCARDISGYGDWFDPWGKGTLVTVSS
VL: QSVVTQPPSASGTPGQRVTISCSGSSSNIGSNTVNWYQLLPATAPRILIYNNNQRPSGVPDRFAGSKSGTSASLAISGLQSEDEADYYCGAWDDSLNSPVFGGGTKLTVL
B3: afucosylated ILT70080.6 (antibody, V domains shown)
VH: QVQLVQSGAEVKKPGSSVKVSCKASGDSFRNYAVSWVRQAPGQGLEWMGAMMPSFGTREHSQQFQGRVTLTADESTSTAYMELSSLRSEDTAVYYCAGSRDYNAYHFWTGPPDFWGRGTLVTVSS
VL: SYVLTQPPSVSVAPGKTARITCGGDSVGSTSVHWYQQKPGQAPVLVIYYNSDRPSGIPERFSGSNSGNTATLTISRVEAGDEADYYCQVWDTSSDHPEFGGGTKLTVL
modifications: afucosylated (no core fucose on the Fc N-glycan)
B4: afucosylated IgG1 ILT70137 (antibody, V domains shown)
VH: QVQLQQSGAEVKKPGASVKVSCKASGYTFTSYGISWVRQAPGQGLEWMGWISAYNGNTNYAQKLQGRVTMTTDTSTSTAYMELRSLRSDDTAVYYCARNGLWGWDSDAFDIWGRGTLVTVSS
VL: QSALTQPASVSGSPGQSITISCTGTSSDVGGYNYVSWYQQHPGKAPKLMIYDVSNRPSGVSNRFSGSKSGNTASLTISGLQAEDEADYYCSSYTSSSTVVFGGGTKVTVL
modifications: afucosylated (made as in Example 7: lacks the α-1,6 fucose moiety on the N-glycan at Asn-297 of the heavy chain)
B5: ILT70083.1 (antibody, V domains shown)
VH: EVQLLESGGGLVQPGGSLRLSCAASGFTFSSYAMSWVRQAPGKGLEWVSAISGSGGSTYYADSVKGWFTISRDNSKNTLYLQMNSLRAEDTAVYYCARRTYYYDSDGHSDVFDIWGRGTLVTVSS
VL: QSVVTQPPSVSAAPGQKVTISCSGSASNIGSNFVSWYQQLPGTAPKLLIYDNDKRDLGIPDRFSASISSTSATLGITGLQTGDEADYYCGTWDTSLTVGVFGGGTKLTVL
B6: ILT70083.3 (antibody, V domains shown)
VH: B5 VH
VL: B5 VL with A65G, I67K, S69G
notes: Engineered (germlined) ILT70083 IgG1 variant; also called ILT70083 variant
B7: ILT70083.4 (antibody, V domains shown)
VH: B5 VH
VL: B5 VL with V4L, A65G, I67K, S69G
notes: as for B6
B8: ILT70083.8 (antibody, V domains shown)
VH: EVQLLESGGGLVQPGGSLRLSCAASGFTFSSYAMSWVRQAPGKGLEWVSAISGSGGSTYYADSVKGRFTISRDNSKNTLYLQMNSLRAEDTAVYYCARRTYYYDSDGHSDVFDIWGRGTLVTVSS
VL: B5 VL with A65G, I67K, S69G
notes: as for B6
B9: ILT70083.5 (antibody, V domains shown)
VH: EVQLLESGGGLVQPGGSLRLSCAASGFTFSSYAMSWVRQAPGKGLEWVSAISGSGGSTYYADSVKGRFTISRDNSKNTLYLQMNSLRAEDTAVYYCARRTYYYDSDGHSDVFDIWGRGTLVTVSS
VL: B5 VL with T43R, T73A, G75A, G82E
B10: ILT70083.7 (antibody, V domains shown)
VH: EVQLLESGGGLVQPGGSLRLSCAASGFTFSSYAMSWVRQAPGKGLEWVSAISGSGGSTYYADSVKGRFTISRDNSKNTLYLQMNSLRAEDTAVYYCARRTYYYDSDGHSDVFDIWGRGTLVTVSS
VL: B5 VL with V4L
B11: ILT70083.6 (antibody, V domains shown)
VH: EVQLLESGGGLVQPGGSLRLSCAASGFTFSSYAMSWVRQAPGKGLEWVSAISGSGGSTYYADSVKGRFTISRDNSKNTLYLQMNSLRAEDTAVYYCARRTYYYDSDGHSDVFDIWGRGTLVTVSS
VL: B5 VL
notes: as for B6
B12: ILT70083.2 (antibody, V domains shown)
VH: B5 VH
VL: B5 VL with V4L
B13: ILT70083.9 (antibody, V domains shown)
VH: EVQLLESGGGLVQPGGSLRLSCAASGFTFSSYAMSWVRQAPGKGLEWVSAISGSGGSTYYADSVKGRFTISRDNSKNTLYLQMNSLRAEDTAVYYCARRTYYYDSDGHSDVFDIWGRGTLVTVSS
VL: B5 VL with V4L, A65G, I67K, S69G
notes: as for B6
B14: ILT70080.2 (antibody, V domains shown)
VH: B3 VH with T71S
VL: B3 VL with L45M, I47M, Y48F, N65I
notes: Engineered (germlined) ILT70080 variant tested as IgG1; also called ILT70080 variant
B15: ILT70080.3 (antibody, V domains shown)
VH: B3 VH with K13A, S16T, T71S
VL: B3 VL with L45M, I47M, Y48F, N65I
notes: as for B14
B16: ILT70080.6 (antibody, V domains shown)
VH: B3 VH
VL: B3 VL
notes: as for B14
B17: ILT70080.5 (antibody, V domains shown)
VH: B3 VH
VL: B3 VL with L45M, I47M, Y48F
notes: as for B14
B18: ILT70080.7 (antibody, V domains shown)
VH: B3 VH
VL: B3 VL with I47M, Y48F
notes: as for B14
B19: ILT70080.4 (antibody, V domains shown)
VH: B3 VH with K13A, S16T, T71S
VL: B3 VL with V3E, R19K, T21S, L45M, I47M, Y48F, N65I
notes: as for B14
B20: ILT70080.1 (antibody, V domains shown)
VH: B3 VH
VL: B3 VL with L45M, I47M, Y48F, N65I
notes: as for B14

Target: T1, human ILT7 expressed on transfected cells (human, UniProt P59901 24-499)
T1 construct: whole, on cells; also called LILRA4; LIRA4
T1 sequence (P59901 24-499): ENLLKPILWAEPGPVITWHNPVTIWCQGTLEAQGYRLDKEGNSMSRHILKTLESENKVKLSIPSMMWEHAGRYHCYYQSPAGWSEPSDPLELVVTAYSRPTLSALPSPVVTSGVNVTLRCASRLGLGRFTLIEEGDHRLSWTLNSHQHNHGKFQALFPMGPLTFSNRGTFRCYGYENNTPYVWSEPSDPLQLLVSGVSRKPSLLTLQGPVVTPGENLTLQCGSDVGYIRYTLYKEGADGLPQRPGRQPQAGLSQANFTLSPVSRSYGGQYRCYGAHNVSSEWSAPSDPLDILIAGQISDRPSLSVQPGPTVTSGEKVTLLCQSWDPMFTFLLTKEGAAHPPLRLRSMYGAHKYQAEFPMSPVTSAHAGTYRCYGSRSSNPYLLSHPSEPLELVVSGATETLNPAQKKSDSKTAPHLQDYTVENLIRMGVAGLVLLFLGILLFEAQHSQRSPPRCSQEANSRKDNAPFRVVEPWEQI
Test: FMAT cell binding, CHO cells expressing human ILT7
Source text: This homogeneous assay assessed the binding of crude scFv supernatant samples or purified IgG to Chinese Hamster Ovary (CHO) cells expressing either human or cynomolgus ILT7 in a 384-well (Costar 3655) format. ScFv or Ab binding to cells was detected using a mouse anti-His/goat anti-mouse Alexafluor®-647 labelled antibody (Molecular Probes A21236) mix, or goat anti-human Alexafluor®-647 labelled antibody (Molecular Probes A21445) respectively. Plates were read on the Applied Biosystems Cellular Detection system 8200 reader. The Helium neon excitation laser was focused within 100 μm depth of the bottom of the well, scanning an area 1 mm². The cells settled at the bottom of the well, and upon laser excitation at 633 nm, those beads with fluorophore bound (where the local concentration of fluorophore is relatively high compared to unbound fluorophore) emitted a signal at 650-685 nm that was measured using photomultiplier tube-1 (PMT1). […] The presence of scFv or IgG samples binding to the cells at the bottom of the well caused an increase in Alexafluor-labeled detection antibody within the excitation depth. This was measured as an increase in fluorescence.
Species cross-reactivity of anti-ILT7 antibodies was determined using FMAT binding assay. The detailed assay method is provided in the Materials and Methods section. […]

Row | binding result | Binder
1 | binds | B1
2 | binds | B2

Target: T2, cynomolgus ILT7 expressed on transfected cells (cynomolgus, UniProt P59901 24-499 (human entry))
T2 sequence (P59901 other isoform, or with tags, fused parts or gaps limits assumed): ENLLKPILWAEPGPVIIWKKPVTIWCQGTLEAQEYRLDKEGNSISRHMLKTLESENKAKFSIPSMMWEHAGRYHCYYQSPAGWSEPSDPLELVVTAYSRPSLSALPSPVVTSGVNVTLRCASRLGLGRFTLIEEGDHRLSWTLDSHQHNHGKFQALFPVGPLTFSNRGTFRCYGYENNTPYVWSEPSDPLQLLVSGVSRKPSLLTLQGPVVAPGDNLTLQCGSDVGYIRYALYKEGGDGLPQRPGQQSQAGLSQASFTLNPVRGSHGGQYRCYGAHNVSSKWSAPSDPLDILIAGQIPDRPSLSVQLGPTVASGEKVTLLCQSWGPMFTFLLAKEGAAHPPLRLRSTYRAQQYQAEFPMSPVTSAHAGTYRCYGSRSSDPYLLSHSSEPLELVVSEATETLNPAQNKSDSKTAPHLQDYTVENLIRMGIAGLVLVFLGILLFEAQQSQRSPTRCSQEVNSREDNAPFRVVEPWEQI
Test: cell-based or functional assay

Row | ADCC EC50 [µM] | Binder
3 | 0.44 | B3
4 | 1.89 | B4

Target: T1, human ILT7 expressed on transfected …
Test: cell-based or functional assay

Row | ADCC potency EC50 | ADCC EC50 [µM] | Binder
5 | > 89 µM | – | B5
6 | > 89 µM | – | B6
7 | > 89 µM | – | B7
8 | > 89 µM | – | B8
9 | > 89 µM | – | B9
10 | > 89 µM | – | B10
11 | > 89 µM | – | B11
12 | > 89 µM | – | B12
13 | > 89 µM | – | B13
14 | < 14.1 µM | – | B14
15 | < 14.1 µM and 11 µM | – | B15
16 | < 14.1 µM and 6.9 µM | – | B16
17 | – | 1.12 | B3
18 | < 14.1 µM and 8.6 µM | – | B17
19 | < 14.1 µM and 7.8 µM | – | B18
20 | < 14.1 µM and 11.9 µM | – | B19
21 | < 14.1 µM and 8 µM and 10 µM | – | B20
22 | – | 4.19 | B4

Target: T2, cynomolgus ILT7 expressed on …
Test: flow cytometry on CT-125 cells expressing cynomolgus ILT7
Description: Binding of anti-ILT7 variants and isotype controls on human and cynomolgus ILT7 was assessed by flow cytometry analysis using CT-550 and cynoILT7 CT-125 cells respectively. CT-125 cells were used as control. Cells were resuspended in Blocking Buffer (PBS supplemented with 10% FBS) at a concentration of 5 million cells per mL and transferred into a round-bottom 96-well plates (BD Falcon™ Clear Microtest Plate, BD Biosciences) at 100 μL per well. Anti-ILT7 variants and control antibodies were added onto the cells for 30 min at 4° C. on a plate shaker. Cells were washed three times with PBS and resuspended in Blocking Buffer (100 μL/well). Human IgG binding on cell surface was detected using a secondary anti-human IgG antibody conjugated to DyLight 649 (1 in 1000 dilution). Cells were incubated in the dark for 30 min at 4° C. on a plate shaker. Cells were washed three times with PBS and surface fluorescence was acquired using LSRII Flow Cytometry System and FACSDiva Software (both from BD Biosciences).
The resultant IgG1s were tested to confirm that the sequence changes incorporated into ILT70080 and ILT70083 and had not adversely impacted the binding of the parent antibody to cells expressing human ILT7 (CT-550 cells) or cynomolgus ILT7 (CT-125 cells). The variants were screened for binding by flow cytometry. […] However, five ILT70083 variants (ILT70083.4, ILT70083.9, ILT70083.3, ILT70083.6, and ILT70083.8) had improved binding capacity compared to the parental antibody for cynomolgus ILT7.

Row | binding result | Binder
23 | binds | B6
24 | binds | B7
25 | binds | B8
26 | binds | B11
27 | binds | B13
28 | binds | B14
29 | binds | B15
30 | binds | B16
31 | binds | B17
32 | binds | B18
33 | binds | B19
34 | binds | B20
